By Kd is commonly meant the equilibrium constant for the complex coming apart. Read a high Kd as lower affinity. One may read the koff as the rate constant with which the complex falls apart. The low end stands for a long-lived complex, the high end for a short-lived complex. The kon is a measure of how fast the partners come together. A higher kon goes with faster complex formation.

First the molecules themselves.
B1: MBPvIL-6 (fusion of maltose binding protein, a factor Xa cleavage site and amino acids 22-204 of KSHV vIL-6) (ligand)
chain: GKLPDAPEFEKDLLIQRLNWMLWVIDECFRDLCYRTGICKGILEPAAIFHLKLPAINDTDHCGLIGFNETSCLKKLADGFFEFEVLFKFLTTEFGKSVINVDVMELLTKTLGWDIQEELNKLTKTHYSPPKFDRGLLGRLQGLKYWVRHFASFYVLSAMEKFAGQAVRVLNSIPDVTPDVHDK
modifications: biotinylated in the sgp130 interference ELISA (sites not given)
notes: range 22-204; also called recombinant vIL-6; full length MBPvIL-6; not shown: factor Xa cleavage site and vector linker between MBP and vIL-6
B2: sgp130-Fc (R&D Systems), a fusion protein of sgp130 and human IgG Fc (Fc fusion)
chain: ELLDPCGYISPESPVVQLHSNFTAVCVLKEKCMDYFHVNANYIVWKTNHFTIPKEQYTIINRTASSVTFTDIASLNIQLTCNILTFGQLEQNVYGITIISGLPPEKPKNLSCIVNEGKKMRCEWDGGRETHLETNFTLKSEWATHKFADCKAKRDTPTSCTVDYSTVYFVNIEVWVEAENALGKVTSDHINFDPVYKVKPNPPHNLSVINSEELSSILKLTWTNPSIKSVIILKYNIQYRTKDASTWSQIPPEDTASTRSSFTVQDLKPFTEYVFRIRCMKEDGKGYWSDWSEEASGITYEDRPSKAPSFWYKIDPSHTQGYRTVQLVWKTLPPFEANGKILDYEVTLTRWKSHLQNYTVNATKLTVNLTNDRYLATLTVRNLVGKSDAAVLTIPACDFQATHPVMDLKAFPKDNMLWVEWTTPRESVKKYILEWCVLSDKAPCITDWQQEDGTVHRTYLRGNLAESKCYLITVTPVYADGPGSPESIKAYLKQAPPSKGPTVRTKKVGKNEAVLEWDQLPVDVQNGFIRNYTIFYRTIIGNETAVNVDSSHTEYTLSSLTSDTLYMVRMAAYTDEGGKDGPEFTFTTPKFAQGEIE
notes: extracellular domain; Immobilized on the CM5 chip in the BIAcore work; the results text calls it sgp130; also called immobilized sgp130; not shown: human IgG Fc
B3: purified recombinant human sgp130 (R&D Systems) (receptor)
chain: B2 chain
notes: extracellular domain; Used in the ELISA assays; Bought; also called soluble gp130
B4: purified recombinant human sIL-6Rα (R&D Systems) (receptor)
chain: LAPRRCPAQEVARGVLTSLPGDSVTLTCPGVEPEDNATVHWVLRKPAAGSHPSRWAGMGRRLLLRSVQLHDSGNYSCYRAGRPAGTVHLLVDVPPEEPQLSCFRKSPLSNVVCEWGPRSTPSLTTKAVLLVRKFQNSPAEDFQEPCQYSQESQKFSCQLAVPEGDSSFYIVSMCVASSVGSKFSKTQTFQGCGILQPDPPANITVTAVARNPRWLSVTWQDPHSWNSSFYRLRFELRYRAERSKTFTTWMVKDLQHHCVIHDAWSGLRHVVQLRAQEEFGQGEWSEWSPEAMGTPWTESRSPPAENEVSTPMQALTTNKDDDNILFRDSANATSLPVQDSSSVPLP
notes: extracellular domain; Bought; also called soluble IL-6Rα

For assay [1], the target named is B2. Briefly: SPR Kd of this filing against a previously reported Kd (1.7 nM) of the human IL-6/sIL-6Rα complex.
The target in assay [2] is B2. The assay can be described thus: SPR (BIAcore 2000), equilibrium data, Scatchard analysis, sgp130-Fc immobilized.
Assay [3] addresses B2. Briefly: SPR (BIAcore 2000), sgp130-Fc immobilized on CM5, MBPvIL-6 in flow, 1:1 Langmuir binding model. On the technique in general: Surface plasmon resonance follows binding to a sensor surface in real time, without labels.
Assay [4] concerns the target T1, maltose binding protein (MBP), control (UniProt P0AEX9 27-392 = MBP). Briefly: surface plasmon resonance (BIAcore 2000), sgp130 immobilized at 1.5 ng/mm2.
The target in assay [5] is T1, maltose binding protein (MBP), control. The assay can be described thus: indirect ELISA, receptor immobilized. (In an ELISA, binding on a coated surface is turned into a signal by an enzyme label.)
Experimental: Reactions were visualized by using tetramethoxybenzene peroxidase substrate (Kirkegaard & Perry Laboratories, Gaithersburg, Md.), followed by 2N H2SO4. The interference of vIL-6 binding to sgp130 by mAbs was analyzed in a similar manner. […] The mixture was applied to the plates coated with sgp130 (2 μg/ml) after SuperBlock treatment. The protein complex was detected by streptavidin-HRP (1:1000; Kirkegaard & Perry Laboratories), and the peroxidase activity was visualized by tetramethoxybenzene peroxidase substrate, followed by 2N H₂SO₄. Plates were read at 450 nm with λ correction at 630 m using a microplate reader.

On to B1, for which the “fold lower binding affinity than human IL-6/sIL-6Rα complex to gp130” value in assay [1] is 1000 fold. The Kd in assay [2] stood at 2500 nM. In assay [3], this molecule came in with a Kd of 2200 nM, a koff of 0.0022 s⁻¹ and an association rate constant (kon) of 980 M⁻¹ s⁻¹.
B2: the binding result in assay [4] is “no binding”.
Regarding B3, the binding result in assay [5] is given as “no binding”.
In the case of B4, the binding result in assay [5] is reported as “no binding”.

Values taken from US20060039927A1 (US Dept. of Health and Human Services, published 2006).
